Drawing on the NTF2 design screens of Basanta et al. (2020), this text covers protease stability score for 34 sequences.

The nature of this series: protease stability score; higher = more stable; yeast display proteolysis, trypsin and chymotrypsin.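 Further: relative to predicted unfolded state with 0 unfolded-like and 1 meaning tenfold more protease.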
As for “DHEEEQVRLAFEIFKTLQETGDEELLHHFFDPNARSDVDGREVVGRHAVEEWQRDLGVDHIHVHKFTFIDGRVEMHFTYTQGDKVIKVHIYVHKVDGKWDMHRIHVR”, the protease stability score came out at 1.24.
As for “DHEEHLSHIALRESMEYLETGDPRKYTELMDPNVKLRVDINGKQIEFHGREEASRFMEHVQHEIKGARIETHSEDTQGNKIHMDLKLLINGKESKLIIIALKINGRWLVTSMEVHVK”, the figure is 1.88; as for “DHEEHYSRIAVQEVLHRMLTGDEESLVKLADPHTRMTIGDKELHGWELVFEFLRDWVHKFKNIRLHIHQHEVQGDKIHIEIRVLIDGKEQDVKIHAEKIDGKWIYRQSHFR”, 0.751.
As for “DHEEKAKKFFDDLLRAVKHNDETQLERLFDKNVRFNVGEHNFRGREEFVKMVRTMVEQVDHVTATIVSIETNGDKVNLVAQWDMSHNGNSKRIRVLVVLDDNNGRVVAREMSEK”, the figure is 1.98; as for “DHEEKEARRLLELIWKLIQTGDEHFLRELMDPHARISIDGVRLHGMEDIREFLHRYFKHHGYRWHRQRETEKHVVNGVQILFGEHDGEVDGKRDNTRSRLIFLVIDGKLQELEVNNV”, 0.855.
For the sequence “DHEEKHLEHFLHLITHLEHTGDERTLEKLVDPHVRHEFNGKELHGRERAVRWSEELRQKMGADHWSIKRVNVFDGVVHLHTELEVNGVRVHFHIDVRVVDGRVKHIKIRNE”, the protease stability score worked out at 0.861.
As for “DHEEKHMIKIARLILLLWFTGDEDTFSRLADPNVRVIIIWNGKEIHSHGMERFSEDRKRHEEEMRLKDFRIDEVRAVGDKIHMRVTIHLIQGDKEREIDLEIRIVLVNGKLKTIEFIFH”, the figure is 2.63.
The figure for “DHEEKIWEEVLKELVHQFLTGDWKTRTQMADPEVRVESRVGDKFVRMHGREYLRMLMEFLHEQIKNATVTLHSFRVVDGRNEIKLRAEIGDKTHEIDMHYFVVDGRIKSLHVRTWEL” is 1.05; for “DHEEKKAKELLHLIVELLITGDEDTLSRLLDPNTRWIINGRHLHGMHVFEEWVRRLKEQYKGVTVHIEIEDSKVVGEKARSEIRLIINIGDKVHDIESRLEIVVIDGKMRSLRFEFK” it is 1.19; for “DHEEKLSEDISRFLLELYLTGDPERLAKNADPNTKLIIDINGRHEDIHGREYIYKWSLDWFRKAGVTRVEFDLRSMDVQGEKAVIHGVNRVGDKDRHMTEIWIVVNGKLKEVRVKLE” it is 1.28.
Consider “DHEEKLYELEIRLLQEIVETGDEETSHRLADPHARLNINGRHLVGREHFREFVHKIKGARLDIEEVRVQGDKVIIHGRWIQGDKELDVDFISRKIDGKWKFHSIHVH”, for which the protease stability score turned out to be 1.33.
The figure for “DHEENMLKLMVTLWTQSLRTGDEDTLFRLMDPHARDVVGDKEFHGREEVKHHLRELLLEIRIEDSHVEDFRVYDGVAEIDTRQHGIFNGKRLEYETRILVLKVNGRWIFTHVERR” is 0.592.
Take “DHEERIISEQLKIELESTATGDESTLEELVDPTTKININGKHLHGRESILKLLVEYARRADHIEIRPEHVEVYGNKLIIHGEIRIEVGDKRHSTKVLLILRKVNGRWRLTEEKWD”: the protease stability score turned out to be 1.65.
The figure for “DHEERNIEDFLRELLHSLITGDEHTYRRLMDPNMQLFVDGRTFVGWKEALKWYQEILRRIDVIENIEIEQFSVFDGRVFVRVHLHMRVGDKTHHSFVHILLVKINGKWRLEEHEVV” is 1.79; for “DHEFEDSKRATEETLHLIETGNEEKIRQLADPHVRIIIFINGRDIHLHGREELSRHISEMGVDHRRWTELRLFEGHAENDVKVNFNGREFKVIIFVRKVNGRWVIERLEVHVI” it is 2.25.
“DHEHEEFEENLEHFEHHMKTGDFELLLKLADPHVKIHVNGRDYHGWEELKRVLETLGISKVKVEFHRIHLINGVAFNDGKMEVNGVHTKTHYVAKKVNGRWFMRSMEMN”: the protease stability score was 0.775.
As for “DHEHRELRELIHRIEKNIRTGNWDVVEKMLDPHARIDIDGKEIHGRDRLVEEMVKQWEKMGVDHIEIKLEDYKVSENEVYLDMIFVIRVGDKVIFIDSHIISRKIDGRWIIHSIHFR”, the figure is 1.95.
As for “DHEHRFMEETLERLLHVWRTGDESLIHELADPEARSDVNGREHHGRERFVDTVRHLGVKHVELKDWTIQGEKVHLSTEVDVGDKTFDFEIIIYKINGKWLIHEMRVK”, the figure is 0.945; as for “DHEKENIERSSRIMLRLYETGDEDELRKLADPHARSEVGEFEYHGREEVFRWLNLLIRELGAKHITIRDIKYVGNKLTLHMISHVDGRELNLEIWAIKIDGQWLLTTVHHK”, 0.69.
The figure for “DHEKEVAERIMRLLFHQLETGDWRLESKMADPNVRLNFNGVHLHGMETSVKWLEELRIHSFRIRDMRIDIINGVAVADNDTETEITFDGVRIRTRTHLHIFVSKFDGRWHVSEIEIRIR” is 0.094; for “DHEKKEIEDLLRELFEALFTGDEHILHRLLDPRTKLVINGRNYHGRETVRRFVLHIRIFFHHIEIESSEIQGEWIHLHIRVDFREEQGDKERRIDTHAVMHMLKVNGRWVIHEIVLH” it is 1.54; for “DHEREDMRRFVQEVLRVIETGDEDIYMRLLDPHYKVDFNGREIIGREELLRFFRDLGVDRIEADKEDVRSQGDKVITNTHITVNGRRIEMRVIVIKIDGQWVLHSLEFR” it is 1.2.
Take “DHETRWLRHVLKIWDHMVETGDWEKSERLADPNTKLVIDGVDLHGRRDYNRHMRELRVHHTEINDVELTNIGDKVHLYREVDYDITVDGRRIITHIELFLIIRKVDGRWILEEQEVNFR”: the protease stability score came out at 0.236.
As for “DHEVAKTMMEEWQKALENGDDKKLKELYDPDGEWEADDEQDQGTEVIEKLMEKVKKQGLKFQVRKAKVEGDKFTVVYDLHVGNKTATFEVEVHVEGGRIKKVKAKADEEAKKLITEG”, the figure is 2.05; as for “DHHEEASHRVIEILLRAHRTGDWHELLRMMDPNTMLIVGDKTFHGREELEKILRHFVERAITIHDIKIESVENQGDKIHVHGHIDKRVNGRQVSIETEIDILKVNGRWFISTLRYH”, 1.89; as for “DHHEEIMVTIMELLVRWLETGDEKSLVELLDPDVRHDVNGVDLHGREHVSRWMREHLERYDHLEVEITHIEVQGDKVHLDGTLILIFNGRNVVMKVHIHTIIVNGRAHELRFRTE”, 0.698.
The figure for “DHHEELRHWFLEIYRRIMITGDEKELEKLIDPHAKLRINGREHVGMEYIQRIFDLLRHEIRFKDMDIREYHLVDGQIDDHSVLTLHINGKEVTRETRIVNRKVNGRWKIEVESIH” is 0.622; for “DHHEELVERIAREWIHAWKTGDEKRLRELMDPHVRMNFNGQELHGRELVTNFLHEFLERFDHQEHHIKRFTVVNGVMHIDGELDLNFDGRRYRHRVHIHIFVFDGRVKHVEIEIR” it is 2.29.
The figure for “DHHEETIRHFAKLWVELWLTGDEKSLQTLADPHVRVHINGVDLHGRDAIHHFLRRIEERYKGLRIDVEEQRIVNGRTEMITEIHIGDKVWRTRLHVVVVDGRIHELSFKDE” is 2.25; for “DHHEHDTKILMDLWLHALTTGDWRLLAELADPHVRFEVEFDGRRIEYHGRHSFEEHMKRLVDKIKNLTLTIHDVRVIGDFVHIEGETTWDGRTSSIHIHLKVINGRVKHIKVEER” it is 1.92.
Sequence “DHHEKHLKHIFHLYIRAWITGNEKEMQDLADPNVRMHVGDKHVHGREEVRRLHHHLLTHIRLDHFHIDDHRVYDGVVEVKGIEDHNVNGQRHRFESTWIIVIVNGRIEEIEIRVH” returned a protease stability score of 1.16.
The figure for “DHHKESSEYLVRDYYEYIETGDFKRMEELADPNMKVVVGDKTHHGRESLSVVYLRLGIKHWDIKRIHNIGNKIRIHSTIFVDGVDMHEHSHAEKIDGRWLLRELSFE” is 0.319.
Sequence “DHHRKETEELAELFFENLLTGNWEIHEHLLDPDVKLEQGDKINVGRESYSEWLEYVKKHIRIRDWKIRHVHVFNGRVHLETEVHMEYGDKHHVVDMHISIDVINGRFKTVRIEIK” displayed a protease stability score of 2.1.
As for “DHIDEDAAHVSRVLLTLLRTGDEETLFQLLDPNMRVDVNGVELHGREEWWKHVYRRNKELGMEVKYHLHKLTVINGVAHIDFRIEIYIGDKRIEYRHEVHIEKINGVWLVREIREG”, the figure is 1.47.
